Data taken from IntAct's records for PubMed 23075851.
Blank lines part the entries; values can stand above or below the substance they belong to.

What was measured:
caf1a_human CHAF1A = caf1a_human CHAF1A (UniProt Q13111)
DAXX, Q9UER7-1 [1] = target: DAXX, Q9UER7-1
DAXX, Q9UER7-1 [2] = target: DAXX, Q9UER7-1; remark: listed apart in the source
asf1b_human ASF1B = asf1b_human ASF1B (UniProt Q9NVP2)
Chain of asf1b_human ASF1B (Q9NVP2 whole entry): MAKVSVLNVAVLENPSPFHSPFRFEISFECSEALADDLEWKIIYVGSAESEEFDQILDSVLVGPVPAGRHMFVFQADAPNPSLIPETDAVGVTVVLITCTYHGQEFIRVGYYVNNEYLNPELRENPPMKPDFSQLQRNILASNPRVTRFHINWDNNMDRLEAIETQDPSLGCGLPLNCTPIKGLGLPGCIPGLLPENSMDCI

Chain of DAXX, Q9UER7-1 (Q9UER7 whole entry): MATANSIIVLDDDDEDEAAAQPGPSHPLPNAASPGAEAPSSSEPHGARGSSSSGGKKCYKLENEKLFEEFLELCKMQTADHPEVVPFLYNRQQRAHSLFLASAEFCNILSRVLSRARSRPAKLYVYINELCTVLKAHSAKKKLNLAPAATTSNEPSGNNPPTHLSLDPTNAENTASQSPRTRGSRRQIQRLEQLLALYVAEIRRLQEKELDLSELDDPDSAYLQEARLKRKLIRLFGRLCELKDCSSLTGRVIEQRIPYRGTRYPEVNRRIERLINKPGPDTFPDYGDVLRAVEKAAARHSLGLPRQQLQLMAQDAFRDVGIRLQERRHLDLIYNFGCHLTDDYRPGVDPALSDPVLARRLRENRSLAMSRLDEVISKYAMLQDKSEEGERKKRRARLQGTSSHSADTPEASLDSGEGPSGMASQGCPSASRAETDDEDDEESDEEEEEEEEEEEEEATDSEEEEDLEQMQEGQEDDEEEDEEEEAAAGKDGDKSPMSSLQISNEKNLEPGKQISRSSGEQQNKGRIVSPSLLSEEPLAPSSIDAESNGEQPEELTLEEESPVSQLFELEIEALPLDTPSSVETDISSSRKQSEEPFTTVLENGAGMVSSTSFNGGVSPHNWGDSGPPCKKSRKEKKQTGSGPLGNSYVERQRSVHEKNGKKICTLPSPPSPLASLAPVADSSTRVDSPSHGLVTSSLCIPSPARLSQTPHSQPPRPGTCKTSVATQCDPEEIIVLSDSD
Chain of caf1a_human CHAF1A (Q13111 whole entry): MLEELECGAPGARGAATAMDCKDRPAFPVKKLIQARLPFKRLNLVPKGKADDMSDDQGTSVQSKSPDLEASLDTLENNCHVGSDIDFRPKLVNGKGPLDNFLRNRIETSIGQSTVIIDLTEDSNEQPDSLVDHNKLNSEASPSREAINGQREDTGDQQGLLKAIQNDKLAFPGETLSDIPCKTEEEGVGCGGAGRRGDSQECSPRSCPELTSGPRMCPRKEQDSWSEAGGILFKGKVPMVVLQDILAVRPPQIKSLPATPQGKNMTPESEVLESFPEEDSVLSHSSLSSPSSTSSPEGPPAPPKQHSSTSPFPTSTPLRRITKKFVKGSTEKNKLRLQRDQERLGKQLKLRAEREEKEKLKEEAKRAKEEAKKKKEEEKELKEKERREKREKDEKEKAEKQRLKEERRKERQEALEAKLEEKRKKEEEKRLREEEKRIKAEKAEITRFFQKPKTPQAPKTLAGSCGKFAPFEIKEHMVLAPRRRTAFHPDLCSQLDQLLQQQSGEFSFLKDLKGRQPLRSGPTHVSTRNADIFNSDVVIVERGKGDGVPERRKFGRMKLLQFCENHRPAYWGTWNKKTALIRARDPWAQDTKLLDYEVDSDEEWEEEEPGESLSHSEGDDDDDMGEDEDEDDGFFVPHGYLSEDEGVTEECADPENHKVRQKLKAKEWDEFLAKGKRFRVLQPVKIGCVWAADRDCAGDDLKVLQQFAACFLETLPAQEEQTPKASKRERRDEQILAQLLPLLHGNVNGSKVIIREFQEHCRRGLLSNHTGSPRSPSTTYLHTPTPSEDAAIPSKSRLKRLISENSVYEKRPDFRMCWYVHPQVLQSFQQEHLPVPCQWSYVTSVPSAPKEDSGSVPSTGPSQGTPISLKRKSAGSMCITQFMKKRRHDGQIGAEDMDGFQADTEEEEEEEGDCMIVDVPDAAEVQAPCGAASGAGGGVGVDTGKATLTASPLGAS

Substance: Histone H3.3 (Homo sapiens) (from UniProt P84243) G91M
effect of a mutation on the interaction (caf1a_human CHAF1A): increasing interaction strength
effect of a mutation on the interaction (DAXX, Q9UER7-1 [1]): decreasing interaction strength

Substance: Histone H3.2 (Homo sapiens) (from UniProt Q71DI3) M91G
effect of a mutation on the interaction (DAXX, Q9UER7-1 [2]): increasing interaction strength

effect of a mutation on the interaction (asf1b_human ASF1B): disrupting interaction strength
Substance: Histone H3.3 (Homo sapiens) (from UniProt P84243) C111E
